Results on 15 molecules are retold here after patent US20150165065A1 (AVIDBIOTICS, published 2015).

Residue numbers refer to the chain shown, from its start.

One assay has as its target T1, integrin αVβ3 (UniProt P06756 31-992; P05106 27-718).
T1 construct: Coated on the ELISA plate
The assay is described as follows: ELISA, coated integrin, anti-MICA-HRP. Here is the method: (§1) The ability of the soluble MICA molecules in each of the concentrated supernatants to bind target molecules was assayed by an ELISA using the intended target proteins, integrin αVβ3 or αVβ5, as capture agents on the ELISA plate. After the respective integrins were adhered to the bottoms of the wells of the ELISA plate, the wells were washed and blocked, as well known in the field. Each sample (100 μl) of soluble MICA produced and secreted by 293T cells was added to wells containing αVβ3 or αVβ5, incubated and washed. The soluble MICA molecules captured by the integrins were detected by HRP-conjugated antibody to human MICA developed with Ultra TMB-ELISA substrate and the optical densities read. The quantity of soluble MICA in each sample was determined by the MICA-specific ELISA. […] The ELISA signal from a non-binding, negative control MICA (generated by pSW273) was subtracted from each integrin binding signal.
On the technique in general: In an ELISA, binding on a coated surface is turned into a signal by an enzyme label.

The next assay concerns the target T2, integrin αVβ5 (UniProt P06756 31-992; P18084 24-719).
T2 construct: Coated on the ELISA plate
Briefly: ELISA, coated integrin, anti-MICA-HRP. Here is the method: as §1

T1 sequence (P06756 31-992, chain 1 of 2): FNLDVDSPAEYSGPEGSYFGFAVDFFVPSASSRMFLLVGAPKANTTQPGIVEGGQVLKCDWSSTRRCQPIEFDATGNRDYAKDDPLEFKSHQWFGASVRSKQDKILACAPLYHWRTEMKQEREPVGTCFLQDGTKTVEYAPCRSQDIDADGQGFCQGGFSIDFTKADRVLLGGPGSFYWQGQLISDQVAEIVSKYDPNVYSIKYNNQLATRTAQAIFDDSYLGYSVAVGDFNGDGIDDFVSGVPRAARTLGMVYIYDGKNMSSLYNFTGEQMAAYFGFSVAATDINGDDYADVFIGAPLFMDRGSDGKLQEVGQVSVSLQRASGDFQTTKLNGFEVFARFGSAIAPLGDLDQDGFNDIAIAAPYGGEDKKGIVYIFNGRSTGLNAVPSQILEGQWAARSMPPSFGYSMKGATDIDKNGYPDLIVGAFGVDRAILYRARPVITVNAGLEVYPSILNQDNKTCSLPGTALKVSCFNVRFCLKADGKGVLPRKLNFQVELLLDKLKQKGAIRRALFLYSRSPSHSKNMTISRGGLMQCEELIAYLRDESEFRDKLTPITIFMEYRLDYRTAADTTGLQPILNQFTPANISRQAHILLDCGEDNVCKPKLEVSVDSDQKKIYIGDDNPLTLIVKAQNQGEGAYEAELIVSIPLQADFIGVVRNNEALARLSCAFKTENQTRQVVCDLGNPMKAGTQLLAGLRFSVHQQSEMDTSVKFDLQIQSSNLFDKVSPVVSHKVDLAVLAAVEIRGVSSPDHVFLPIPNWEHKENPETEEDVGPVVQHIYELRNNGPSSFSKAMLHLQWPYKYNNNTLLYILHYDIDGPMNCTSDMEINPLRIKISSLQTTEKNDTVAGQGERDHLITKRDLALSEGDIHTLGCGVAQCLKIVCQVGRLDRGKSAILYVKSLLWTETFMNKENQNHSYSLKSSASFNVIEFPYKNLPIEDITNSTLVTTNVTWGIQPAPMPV
T1 sequence (P05106 27-718, chain 2 of 2): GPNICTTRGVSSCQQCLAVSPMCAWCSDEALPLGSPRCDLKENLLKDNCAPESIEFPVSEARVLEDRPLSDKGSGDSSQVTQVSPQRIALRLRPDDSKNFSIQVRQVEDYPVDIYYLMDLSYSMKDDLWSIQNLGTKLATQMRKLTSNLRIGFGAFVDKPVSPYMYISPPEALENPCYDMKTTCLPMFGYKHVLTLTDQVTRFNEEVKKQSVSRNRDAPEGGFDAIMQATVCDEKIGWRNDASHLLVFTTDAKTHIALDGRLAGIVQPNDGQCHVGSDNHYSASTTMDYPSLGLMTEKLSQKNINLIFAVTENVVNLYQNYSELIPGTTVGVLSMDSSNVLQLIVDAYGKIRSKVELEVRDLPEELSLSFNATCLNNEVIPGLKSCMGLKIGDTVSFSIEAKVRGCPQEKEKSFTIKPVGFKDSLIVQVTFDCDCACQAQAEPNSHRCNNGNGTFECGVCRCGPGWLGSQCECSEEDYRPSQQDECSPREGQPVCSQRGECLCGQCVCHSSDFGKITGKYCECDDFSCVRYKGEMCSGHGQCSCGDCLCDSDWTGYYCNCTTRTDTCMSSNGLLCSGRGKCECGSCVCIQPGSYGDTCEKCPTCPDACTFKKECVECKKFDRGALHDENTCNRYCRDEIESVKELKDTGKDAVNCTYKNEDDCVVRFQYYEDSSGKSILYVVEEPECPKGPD
T2 sequence (P06756 31-992, chain 1 of 2): as the sequence (P06756 31-992, chain 1 of 2) above
T2 sequence (P18084 24-719, chain 2 of 2): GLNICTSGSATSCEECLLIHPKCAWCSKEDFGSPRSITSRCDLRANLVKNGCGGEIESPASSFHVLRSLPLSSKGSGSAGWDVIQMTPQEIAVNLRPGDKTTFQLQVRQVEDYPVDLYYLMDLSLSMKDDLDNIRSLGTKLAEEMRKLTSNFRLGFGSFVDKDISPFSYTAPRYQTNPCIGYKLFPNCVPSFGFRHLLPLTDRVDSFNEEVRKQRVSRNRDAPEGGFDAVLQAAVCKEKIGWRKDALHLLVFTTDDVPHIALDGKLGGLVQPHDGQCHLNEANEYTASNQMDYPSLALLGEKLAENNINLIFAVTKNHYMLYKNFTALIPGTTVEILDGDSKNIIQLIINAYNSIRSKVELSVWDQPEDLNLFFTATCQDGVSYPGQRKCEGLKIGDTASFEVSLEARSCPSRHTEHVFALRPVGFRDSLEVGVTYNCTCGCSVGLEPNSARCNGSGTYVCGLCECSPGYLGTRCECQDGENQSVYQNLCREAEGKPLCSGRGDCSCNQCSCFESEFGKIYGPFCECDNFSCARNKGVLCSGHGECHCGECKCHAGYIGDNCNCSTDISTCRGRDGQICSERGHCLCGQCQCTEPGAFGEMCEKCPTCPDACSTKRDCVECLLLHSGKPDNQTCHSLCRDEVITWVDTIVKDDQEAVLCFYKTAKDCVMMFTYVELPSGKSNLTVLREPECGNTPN

B1: soluble MICA generated from pKK37 (loop 1 insert 3.2) (designed binder)
chain: HHHHHHEPHSLRYNLTVLSWDGSVQSGFLTEVHLDGQPFLRCDRQKCRAKPQGQWAEDVLGNKTWDRETRDLTGNGKDLRMTLAHIKDQKEGLHSLQEIRVCEIHEDNSTRSSQHFYYDGELFLSQNLETEEWTMPQSSRAQTLAMNVRNFLKEDAMKTKTHYHAMHADCLQELRRYLKSGVVLRRTVPPMVNVTRTSRGDHPRTQVTCRASGFYPWNITLSWRQDGVSLSHDTQQWGDVLPDGNGTYQTWVATRICQGEEQRFTCYMEHSGNHSTHPVPSGK
notes: From pKK34 (His6, Glu125); secreted by 293T cells; also called 1-3.2
Regarding B1, in the assay with integrin αVβ3, the αvβ3 signal turned out to be 0.777 OD and the αvβ3 signal/ng is 22.4 signal/ng MICA. In the assay with integrin αVβ5, this molecule returned a αvβ5 signal of 0.779 OD and a αvβ5 signal/ng of 22.4 signal/ng MICA.

B2: soluble MICA generated from pKK41 (loop 1 insert 5.2) (designed binder)
chain: HHHHHHEPHSLRYNLTVLSWDGSVQSGFLTEVHLDGQPFLRCDRQKCRAKPQGQWAEDVLGNKTWDRETRDLTGNGKDLRMTLAHIKDQKEGLHSLQEIRVCEIHEDNSTRSSQHFYYDGELFLSQNLETEEWTMPQSSRAQTLAMNVRNFLKEDAMKTKTHYHAMHADCLQELRRYLKSGVVLRRTVPPMVNVTRGDTFTQSVTCRASGFYPWNITLSWRQDGVSLSHDTQQWGDVLPDGNGTYQTWVATRICQGEEQRFTCYMEHSGNHSTHPVPSGK
notes: From pKK34 (His6, Glu125); secreted by 293T cells; also called 1-5.2
In the assay with integrin αVβ3, B2 registered a αvβ3 signal of 0.516 OD and a αvβ3 signal/ng of 17.7 signal/ng MICA. Besides, in the assay with integrin αVβ5, the αvβ5 signal turned out to be 0.65 OD and the αvβ5 signal/ng is 22.4 signal/ng MICA.

B3: soluble MICA generated from pKK36 (loop 1 insert 3.1) (designed binder)
chain: HHHHHHEPHSLRYNLTVLSWDGSVQSGFLTEVHLDGQPFLRCDRQKCRAKPQGQWAEDVLGNKTWDRETRDLTGNGKDLRMTLAHIKDQKEGLHSLQEIRVCEIHEDNSTRSSQHFYYDGELFLSQNLETEEWTMPQSSRAQTLAMNVRNFLKEDAMKTKTHYHAMHADCLQELRRYLKSGVVLRRTVPPMVNVTSRGDHPRTQVTCRASGFYPWNITLSWRQDGVSLSHDTQQWGDVLPDGNGTYQTWVATRICQGEEQRFTCYMEHSGNHSTHPVPSGK
notes: From pKK34 (His6, Glu125); secreted by 293T cells; also called 1-3.1
On to B3, for which, in the assay with integrin αVβ3, the αvβ3 signal turned out to be 0.55 OD and the αvβ3 signal/ng is 19 signal/ng MICA. In the assay with integrin αVβ5, this molecule showed a αvβ5 signal of 0.526 OD and a αvβ5 signal/ng of 18.1 signal/ng MICA.

B4: soluble MICA generated from pKK48 (loop 3 insert extended 3.2sp) (designed binder)
chain: EPHSLRYNLTVLSWDGSVQSGFLTEVHLDGQPFLRCDRQKCRAKPQGQWAEDVLGNKTWDRETRDLTGNGKDLRMTLAHIKDQKEGLHSLQEIRVCEIHEDNSTRSSQHFYYDGELFLSQNLETKEWTMPQSSRAQTLAMNVRNFLKEDAMKTKTHYHAMHADCLQELRRYLKSGVVLRRTVPPMVNVTRSEASEGNITVTCRASGFYPWNITLSWRQDGVSLSHDTQQWGDVLPDGNGTYQTWVATRISGGSGGGSTSRGDHPRTQSGGSGGGCYMEHSGNHSTHPVPSGK
notes: From pSW276 (no N-terminal His tag, Lys125); secreted by 293T cells; also called 3-3.2sp
In the assay with integrin αVβ3, B4 yielded a αvβ3 signal of 0.478 OD and a αvβ3 signal/ng of 6.08 signal/ng MICA. In the assay with integrin αVβ5, this molecule showed a αvβ5 signal of 0.604 OD and a αvβ5 signal/ng of 7.68 signal/ng MICA.

B5: soluble MICA generated from pKK49 (loop 3 insert extended 3.3sp) (designed binder)
chain: B4 chain with T258R, S259V, R260P, G261R, D262G, H263D, P264S, R265D, T266L, Q267T
notes: From pSW276 (no N-terminal His tag, Lys125); secreted by 293T cells; also called 3-3.3sp
For B5, in the assay with integrin αVβ3, the αvβ3 signal is 0.508 OD and the αvβ3 signal/ng is 5.86 signal/ng MICA. In the assay with integrin αVβ5, the αvβ5 signal was found to be 0.478 OD and the αvβ5 signal/ng came to 5.51 signal/ng MICA.

B6: soluble MICA generated from pKK50 (loop 3 insert extended 5.1sp) (designed binder)
chain: B4 chain with T258V, S259T, H263T, P264F, R265T, T266Q, Q267S
notes: From pSW276 (no N-terminal His tag, Lys125); secreted by 293T cells; also called 3-5.1sp
As for B6, in the assay with integrin αVβ3, the αvβ3 signal amounted to 0.546 OD and the αvβ3 signal/ng was 5.85 signal/ng MICA. In the assay with integrin αVβ5, the αvβ5 signal was found to be 0.721 OD and the αvβ5 signal/ng came out at 7.73 signal/ng MICA.

B7: soluble MICA generated from pKK51 (loop 3 insert extended 5.3sp) (designed binder)
chain: B4 chain with T258H, S259L, R260A, G261R, D262G, H263D, P264D, R265L, Q267Y
notes: From pSW276 (no N-terminal His tag, Lys125); secreted by 293T cells; also called 3-5.3sp
In the assay with integrin αVβ3, B7 yielded a αvβ3 signal of 0.694 OD and a αvβ3 signal/ng of 7.2 signal/ng MICA. In the assay with integrin αVβ5, this molecule came in with a αvβ5 signal of 1.05 OD and a αvβ5 signal/ng of 10.9 signal/ng MICA.

B8: soluble MICA generated from pKK44 (loop 1 insert extended 3.2sp) (designed binder)
chain: HHHHHHEPHSLRYNLTVLSWDGSVQSGFLTEVHLDGQPFLRCDRQKCRAKPQGQWAEDVLGNKTWDRETRDLTGNGKDLRMTLAHIKDQKEGLHSLQEIRVCEIHEDNSTRSSQHFYYDGELFLSQNLETEEWTMPQSSRAQTLAMNVRNFLKEDAMKTKTHYHAMHADCLQELRRYLKSGVVLRRTVPPMVNVTSGGSGGGSTSRGDHPRTQSGGSGGGVTCRASGFYPWNITLSWRQDGVSLSHDTQQWGDVLPDGNGTYQTWVATRICQGEEQRFTCYMEHSGNHSTHPVPSGK
notes: From pKK34 (His6, Glu125); secreted by 293T cells; also called 1-3.2sp
Take B8: in the assay with integrin αVβ3, the αvβ3 signal was found to be 0.41 OD and the αvβ3 signal/ng is 8.92 signal/ng MICA. In addition, in the assay with integrin αVβ5, the αvβ5 signal amounted to 0.46 OD and the αvβ5 signal/ng stood at 10 signal/ng MICA.

B9: soluble MICA generated from pKK47 (loop 1 insert extended 5.3sp) (designed binder)
chain: B8 chain with T204H, S205L, R206A, G207R, D208G, H209D, P210D, R211L, Q213Y
notes: From pKK34 (His6, Glu125); secreted by 293T cells; also called 1-5.3sp
In the assay with integrin αVβ3, B9 gave a αvβ3 signal of 0.294 OD and a αvβ3 signal/ng of 9.99 signal/ng MICA. In the assay with integrin αVβ5, this molecule registered a αvβ5 signal of 0.276 OD and a αvβ5 signal/ng of 9.38 signal/ng MICA.

B10: soluble MICA generated from pKK45 (loop 1 insert extended 3.3sp) (designed binder)
chain: B8 chain with T204R, S205V, R206P, G207R, D208G, H209D, P210S, R211D, T212L, Q213T
notes: From pKK34 (His6, Glu125); secreted by 293T cells; also called 1-3.3sp
Turning to B10, in the assay with integrin αVβ3, the αvβ3 signal turned out to be 0.393 OD and the αvβ3 signal/ng stood at 9.51 signal/ng MICA. Further, in the assay with integrin αVβ5, the αvβ5 signal worked out at 0.41 OD and the αvβ5 signal/ng is 9.92 signal/ng MICA.

B11: soluble MICA generated from pKK52 (tight loop 1 insert T-3.1) (designed binder)
chain: HHHHHHEPHSLRYNLTVLSWDGSVQSGFLTEVHLDGQPFLRCDRQKCRAKPQGQWAEDVLGNKTWDRETRDLTGNGKDLRMTLAHIKDQKEGLHSLQEIRVCEIHEDNSTRSSQHFYYDGELFLSQNLETEEWTMPQSSRAQTLAMNVRNFLKEDAMKTKTHYHAMHADCLQELRRYLKSGVVLRRTVPPMVNTSRGDHPRTQCRASGFYPWNITLSWRQDGVSLSHDTQQWGDVLPDGNGTYQTWVATRICQGEEQRFTCYMEHSGNHSTHPVPSGK
notes: From pSW324 (from pKK34: His6, Glu125); secreted by 293T cells; also called 1-T-3.1
In the assay with integrin αVβ3, B11 yielded a αvβ3 signal of 0.391 OD and a αvβ3 signal/ng of 10.1 signal/ng MICA. For the same molecule, in the assay with integrin αVβ5, the αvβ5 signal turned out to be 0.485 OD and the αvβ5 signal/ng was determined as 12.6 signal/ng MICA.

B12: soluble MICA generated from pKK38 (loop 1 insert 3.3) (designed binder)
chain: HHHHHHEPHSLRYNLTVLSWDGSVQSGFLTEVHLDGQPFLRCDRQKCRAKPQGQWAEDVLGNKTWDRETRDLTGNGKDLRMTLAHIKDQKEGLHSLQEIRVCEIHEDNSTRSSQHFYYDGELFLSQNLETEEWTMPQSSRAQTLAMNVRNFLKEDAMKTKTHYHAMHADCLQELRRYLKSGVVLRRTVPPMVNVTRVPRGDSDLTVTCRASGFYPWNITLSWRQDGVSLSHDTQQWGDVLPDGNGTYQTWVATRICQGEEQRFTCYMEHSGNHSTHPVPSGK
notes: From pKK34 (His6, Glu125); secreted by 293T cells; also called 1-3.3
In the assay with integrin αVβ3, B12 registered a αvβ3 signal of 0.291 OD and a αvβ3 signal/ng of 30.7 signal/ng MICA. In the assay with integrin αVβ5, this molecule yielded a αvβ5 signal of 0.291 OD and a αvβ5 signal/ng of 30.7 signal/ng MICA.

B13: soluble MICA generated from pKK40 (loop 1 insert 5.1) (designed binder)
chain: B12 chain with R196V, V197T, P198R, R199G, G200D, D201T, S202F, D203T, L204Q, T205S
notes: From pKK34 (His6, Glu125); secreted by 293T cells; also called 1-5.1
On to B13, for which, in the assay with integrin αVβ3, the αvβ3 signal was found to be 0.485 OD and the αvβ3 signal/ng worked out at 19.5 signal/ng MICA. In the assay with integrin αVβ5, this molecule displayed a αvβ5 signal of 0.675 OD and a αvβ5 signal/ng of 27.1 signal/ng MICA.

B14: soluble MICA generated from pKK39 (loop 1 insert 3.4) (designed binder)
chain: B12 chain with V197S, P198A, L204H, T205R
notes: From pKK34 (His6, Glu125); secreted by 293T cells; also called 1-3.4
In the assay with integrin αVβ3, B14 registered a αvβ3 signal of 0.482 OD and a αvβ3 signal/ng of 18 signal/ng MICA. Besides, in the assay with integrin αVβ5, the αvβ5 signal was 0.528 OD and the αvβ5 signal/ng worked out at 19.7 signal/ng MICA.

B15: soluble MICA generated from pKK42 (loop 1 insert 5.3) (designed binder)
chain: B12 chain with R196H, V197L, P198A, S202D, D203L, L204T, T205Y
notes: From pKK34 (His6, Glu125); secreted by 293T cells; also called 1-5.3
In the assay with integrin αVβ3, B15 yielded a αvβ3 signal of 0.526 OD and a αvβ3 signal/ng of 21.2 signal/ng MICA. For the same molecule, in the assay with integrin αVβ5, the αvβ5 signal worked out at 0.565 OD and the αvβ5 signal/ng was found to be 22.8 signal/ng MICA.
